Target: SARS-CoV-2 spike protein (FL-GCN4-Avi-His, biotinylated) (SARS-CoV-2, Wuhan-Hu-1, UniProt P0DTC2, stabilised, biotin on the Avi tag)
Test: BLI

| Binder | binding result |
| --- | --- |
| CV27 IgG (antibody, V domains shown) VH: QVQLVESGGGVVQPGRSLRLSCAASGFTFSSYAMHWVRQAPGKGLEWVALISYDGSNKYYADSVKGRFTISRDNSKNTLYLQMNSLRAEDTAVYYCARSFGGSYYYGMDVWGQGTTVTVSS VL: QSALTQPASVSGSPGQSITISCTGTSSDVGGYNYVSWYQQHPGKAPKLMIYDVSNRPSGVSNRFSGSKSGNTASLTISGLQAEDEADYYCSSYTSSSTPYVFGTGTKVTVL | binds |
| CV27 FAb (Fab, V domains shown) VH: QVQLVESGGGVVQPGRSLRLSCAASGFTFSSYAMHWVRQAPGKGLEWVALISYDGSNKYYADSVKGRFTISRDNSKNTLYLQMNSLRAEDTAVYYCARSFGGSYYYGMDVWGQGTTVTVSS VL: QSALTQPASVSGSPGQSITISCTGTSSDVGGYNYVSWYQQHPGKAPKLMIYDVSNRPSGVSNRFSGSKSGNTASLTISGLQAEDEADYYCSSYTSSSTPYVFGTGTKVTVL | binds |
